From US20180360932A1 (OPKO BIOLOGICS, published 2018)

How the values were obtained:
[1] = target: MOD-5014 (FVIIa-CTP3, activated Factor VII-CTP-CTP-CTP) (human) (UniProt P08709); experiment: cell-based or functional assay
[2] = target: NovoSeven (commercial recombinant human FVIIa) (human) (UniProt P08709); experiment: cell-based or functional assay

A % Inhibition of clotting activity, AT 1.050 ng/mL [1] of 25%, a % Inhibition of clotting activity, AT 10.5 ng/mL [1] of 28% and a % Inhibition of clotting activity, AT 105 ng/mL [1] of 25% were found for “Anti thrombin III (ATIII) (from UniProt P01008 33-464)” in this work. The % Inhibition of clotting activity, AT 10,500 ng/mL [1] was 25%, the % Inhibition of clotting activity, AT 105000 ng/mL [1] was 62% and the % Inhibition of clotting activity, AT 525000 ng/mL [1] was 100%. The Activity (mU/mL), clotting assay, AT 0 ng/mL (no inhibitor) [1] was 70.8 mU/mL, the Activity (mU/mL), clotting assay, AT 1.050 ng/mL [1] was 52.9 mU/mL and the Activity (mU/mL), clotting assay, AT 10.5 ng/mL [1] was 50.7 mU/mL. It also gave an Activity (mU/mL), clotting assay, AT 105 ng/mL [1] of 53.3 mU/mL, an Activity (mU/mL), clotting assay, AT 1,050 ng/mL [1] of 53.4 mU/mL and an Activity (mU/mL), clotting assay, AT 10,500 ng/mL [1] of 53 mU/mL. It also gave an Activity (mU/mL), clotting assay, AT 105000 ng/mL [1] of 27 mU/mL, an Activity (mU/mL), clotting assay, AT 525000 ng/mL [1] of 0 mU/mL and an O.D, FX activation by MOD-5014 (0.7 ng/ml), AT 0.16 µg/ml [1] of 1.18 O.D. It also gave an O.D, FX activation by MOD-5014 (0.7 ng/ml), AT 0.8 µg/ml [1] of 1.07 O.D, an O.D, FX activation by MOD-5014 (0.7 ng/ml), AT 4 µg/ml [1] of 1.14 O.D and an O.D, FX activation by MOD-5014 (0.7 ng/ml), AT 20 µg/ml [1] of 1.11 O.D. It also gave an O.D, FX activation by MOD-5014 (0.7 ng/ml), AT 100 µg/ml [1] of 0.974 O.D, an O.D, FX activation by MOD-5014 (0.7 ng/ml), AT 500 µg/ml [1] of 0.975 O.D and an O.D, FX activation by MOD-5014 (0.7 ng/ml), AT 1680 µg/ml [1] of 0.656 O.D. It also gave an O.D, FX activation by MOD-5014 (0.7 ng/ml), control (no AT) [1] of 1.09 O.D, an O.D., FX activation by MOD-5014 (0.7 ng/ml) with 1 U/µl heparin, AT 0.032 µg/ml [1] of 1.24 O.D and an O.D., FX activation by MOD-5014 (0.7 ng/ml) with 1 U/µl heparin, AT 0.16 µg/ml [1] of 1.24 O.D. The O.D., FX activation by MOD-5014 (0.7 ng/ml) with 1 U/µl heparin, AT 0.8 µg/ml [1] was 1.25 O.D, the O.D., FX activation by MOD-5014 (0.7 ng/ml) with 1 U/µl heparin, AT 4 µg/ml [1] was 1.26 O.D and the O.D., FX activation by MOD-5014 (0.7 ng/ml) with 1 U/µl heparin, AT 20 µg/ml [1] was 1.08 O.D. It also gave an O.D., FX activation by MOD-5014 (0.7 ng/ml) with 1 U/µl heparin, AT 100 µg/ml [1] of 0.404 O.D, an O.D., FX activation by MOD-5014 (0.7 ng/ml) with 1 U/µl heparin, AT 500 µg/ml [1] of 0.153 O.D and an O.D., FX activation by MOD-5014 (0.7 ng/ml) with 1 U/µl heparin, AT 1680 µg/ml [1] of 0.197 O.D. It also gave an O.D., FX activation by MOD-5014 (0.7 ng/ml), AT III constant 20 µg/ml, heparin 0.002 U/µl [1] of 1.29 O.D, an O.D., FX activation by MOD-5014 (0.7 ng/ml), AT III constant 20 µg/ml, heparin 0.01 U/µl [1] of 1.14 O.D and an O.D., FX activation by MOD-5014 (0.7 ng/ml), AT III constant 20 µg/ml, heparin 0.25 U/µl [1] of 0.917 O.D. For the same substance, the O.D., FX activation by MOD-5014 (0.7 ng/ml), AT III constant 20 µg/ml, heparin 1.25 U/µl [1] was 0.896 O.D, the O.D., FX activation by MOD-5014 (0.7 ng/ml), AT III constant 20 µg/ml, heparin 6.25 U/µl [1] was 1.02 O.D and the O.D., FX activation by MOD-5014 (0.7 ng/ml), Control [1] was 1.41 O.D. It also gave a % Inhibition of clotting activity, AT 1.050 ng/mL [2] of 21%, a % Inhibition of clotting activity, AT 105 ng/mL [2] of 20% and a % Inhibition of clotting activity, AT 10,500 ng/mL [2] of 30%. For the same substance, the % Inhibition of clotting activity, AT 525000 ng/mL [2] was 100%, the Activity (mU/mL), clotting assay, AT 0 ng/mL (no inhibitor) [2] was 88.1 mU/mL and the Activity (mU/mL), clotting assay, AT 1.050 ng/mL [2] was 69.5 mU/mL. The Activity (mU/mL), clotting assay, AT 10.5 ng/mL [2] was 68.4 mU/mL, the Activity (mU/mL), clotting assay, AT 105 ng/mL [2] was 70.2 mU/mL and the Activity (mU/mL), clotting assay, AT 1,050 ng/mL [2] was 66.8 mU/mL. It also gave an Activity (mU/mL), clotting assay, AT 10,500 ng/mL [2] of 61.5 mU/mL, an Activity (mU/mL), clotting assay, AT 105000 ng/mL [2] of 30.6 mU/mL and an Activity (mU/mL), clotting assay, AT 525000 ng/mL [2] of 0 mU/mL. It also gave an O.D, FX activation by NovoSeven (0.7 ng/ml), AT 0.16 µg/ml [2] of 1.23 O.D, an O.D, FX activation by NovoSeven (0.7 ng/ml), AT 4 µg/ml [2] of 1.17 O.D and an O.D, FX activation by NovoSeven (0.7 ng/ml), AT 20 µg/ml [2] of 1.15 O.D. It also gave an O.D, FX activation by NovoSeven (0.7 ng/ml), AT 100 µg/ml [2] of 1.14 O.D, an O.D, FX activation by NovoSeven (0.7 ng/ml), AT 500 µg/ml [2] of 0.933 O.D and an O.D, FX activation by NovoSeven (0.7 ng/ml), AT 1680 µg/ml [2] of 0.784 O.D. The O.D, FX activation by NovoSeven (0.7 ng/ml), control (no AT) [2] was 1.28 O.D, the O.D., FX activation by NovoSeven (0.7 ng/ml) with 1 U/µl heparin, AT 0.032 µg/ml [2] was 1.16 O.D and the O.D., FX activation by NovoSeven (0.7 ng/ml) with 1 U/µl heparin, AT 0.16 µg/ml [2] was 1.19 O.D. For the same substance, the O.D., FX activation by NovoSeven (0.7 ng/ml) with 1 U/µl heparin, AT 0.8 µg/ml [2] was 1.22 O.D, the O.D., FX activation by NovoSeven (0.7 ng/ml) with 1 U/µl heparin, AT 4 µg/ml [2] was 1.17 O.D and the O.D., FX activation by NovoSeven (0.7 ng/ml) with 1 U/µl heparin, AT 20 µg/ml [2] was 1.04 O.D. It also gave an O.D., FX activation by NovoSeven (0.7 ng/ml) with 1 U/µl heparin, AT 100 µg/ml [2] of 0.503 O.D, an O.D., FX activation by NovoSeven (0.7 ng/ml) with 1 U/µl heparin, AT 500 µg/ml [2] of 0.201 O.D and an O.D., FX activation by NovoSeven (0.7 ng/ml) with 1 U/µl heparin, AT 1680 µg/ml [2] of 0.141 O.D. It also gave an O.D., FX activation by NovoSeven (0.7 ng/ml), AT III constant 20 µg/ml, heparin 0.002 U/µl [2] of 1.24 O.D, an O.D., FX activation by NovoSeven (0.7 ng/ml), AT III constant 20 µg/ml, heparin 0.01 U/µl [2] of 1.2 O.D and an O.D., FX activation by NovoSeven (0.7 ng/ml), AT III constant 20 µg/ml, heparin 0.25 U/µl [2] of 1.04 O.D. The O.D., FX activation by NovoSeven (0.7 ng/ml), AT III constant 20 µg/ml, heparin 1.25 U/µl [2] was 0.98 O.D, the O.D., FX activation by NovoSeven (0.7 ng/ml), AT III constant 20 µg/ml, heparin 6.25 U/µl [2] was 1 O.D and the O.D., FX activation by NovoSeven (0.7 ng/ml), Control [2] was 1.43 O.D.
